Measurements from PMC6776071 (2019).
Bridge positions count the residues as written; N and C are the ends.

Target: thrombin (bovine alpha-thrombin) (bovine)
Assay: SPR

B1: M-Hir (M-hirudin-HN-His tag) (natural protein)
chain: MNRYSVCTETGQNLCLCEGSDLCSLDNHCEIGSNGKNRCVKGEGKPKKPQSNSDLPEEKYEPIPIEDYDK
modifications: disulfide 7-15, 17-29, 23-39
B1 gave a Kd of 2970 nM.

B2: mature hirudin-HN protein (Hir) (natural protein)
chain: NRYSVCTETGQNLCLCEGSDLCSLDNHCEIGSNGKNRCVKGEGKPKKPQSNSDLPEEKYEPIPIEDYDK
For B2, the Kd was 64.7 nM.
